Measured values from US20190292247A1.

Assays:
Experiment in all cases: ELISA on immobilized antigen, streptavidin-HRP detection; value is the average over oligomer, monomer and fibril
[1] = target: amyloid beta 1-42 fibril (UniProt P05067)
[2] = target: amyloid beta 1-42 monomer (UniProt P05067)
[3] = target: amyloid beta 1-42 oligomer (UniProt P05067)

Measured: EC50

Sequence of amyloid beta 1-42 monomer (P05067 672-713 limits assumed): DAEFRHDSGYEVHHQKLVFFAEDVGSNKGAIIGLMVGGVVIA
Sequence of amyloid beta 1-42 oligomer (P05067 672-713 limits assumed): as above
Sequence of amyloid beta 1-42 fibril (P05067 672-713 limits assumed): as above

6E10 antibody (biotinylated)
0.031 µg/mL: all assays above
